Test results taken from the DeepSol protein solubility set.

experiment: soluble on expression in E. coli; label from the status in PepcDB or PDB records

Q: For “MKGLRLPESMREELAKPHGKLYRGKGEKLLLEVEEISEAKPFCTVGDLVTASAIKVGLTPDLAVADGKTLREENVEFEQEAFDEVIETTNPPAHISCELISALLKALKLCEDGKKVLVFVDGEEDLAVVPLVKLLPLGALILYGQPGEGVVALKVDEEKKVLILNLLNKMEIIGECDELKYLLGGD”, which “soluble on expression in E. coli” value is on record?
A: Its value is “not soluble”.

Q: For “MKGRTMNKPFITQAQLALYKYQPSSKYFGQSMAVIAQSEFVEFAKINKSENVIDCFSFFWNRRIKHDIWLISFSDNSEMVIKESLKDGHKIYKFEFCEIVDNCNFDDVFV”, which “soluble on expression in E. coli” value is on record?
A: Its value is “not soluble”.

Q: With “MKGRVRIRGIYATALTSIFSSLSYEIVQQSVEISERFMQEINNLSADITIKDFEDDRGKIIVMGNGIIEDDLRNVFKYSFHWRSPVKLYSVIEIDESCTYANFKVEPCLREGIVIKPPYDGKIILSETKAVSKYAIVWRGKGITTFSEHIVDEEEKMRLLTLSLPLNRKGYNVKWRSNAKYVALNELKEDLERLILRYENREFRDQGEDFYLITLSLPDKLYLDEVRKNVVDTVKYHHMLKLSYNREVDSLEKDKKGSLGKLLEGLISDFLKIEHIKADGKVIYLRGGKVIEKEVNDNGYRIVLRREFEGNGILDGIGKKIEEGDYDIVEYNSDKWYQIHKYYSGIDNSLKGVYINISTPPELLRGKIRYLDLEIDIAIRDSEIALLDEDELNKKSIYMPSSLVNKAKEVVNYLINRIQQNKLS” as the sequence, how does the “soluble on expression in E. coli” value read?
A: The value was “not soluble”.

Q: Which “soluble on expression in E. coli” value does the source give for “MKGVIMIIDGMADRPLEKLSGRTPLEAASTPNMDRIAESGINGIMDPIKPGVRAGSDTSHLSILGYDPYRVYTGRGPFEAAGVGLDVKPGDIAFRCNFATADEDMIITDRRAGRIRSGTSSIARTINSMTIEGFEDVEIIFRESTGHRAVLVLRGPGLGDKVSDADPKVEGKPPKKIKALDGSPESRKTAEVLNRIVKESYEILRDHPVNTGRIERGEAPANIILPRGAGAVPHVEKFQERYDLKAACIAETGLIKGIGHLTGMDVIDVEGATGGIDTDLESIKNAISSAIAADYDFLLINIDGADEAGHDGDLEGKVRFIERVDSILGDLMGDDIYFILTADHSTPVSVMDHTGDPVPIAITGPEVRVDDVTSFSERAAAAGGLCRIRGSDVMDILLDLMNKKEKFGALEHHHHHH” here?
A: Its value is “not soluble”.

Q: With “MKHARRLRQLSQENLAHISGLSQSAVASYENGLRQSSRSIRKLAIALQVNLDWLETGAGPMELEAYPSGPAAWRPGLMEPGGERAAAPWPFRAVAHARYQALSARDKLLLEQLVRTFIDTCHADYGRAPPWPRER” as the sequence, how does the “soluble on expression in E. coli” value read?
A: The value was “not soluble”.

Q: Which “soluble on expression in E. coli” value does the source give for “MKHDHFIVQSPAAPAQQLLLLFHGVGDNPVSMGQIGSWFAPQFPDALIVSIGGVEPCGPNGRQWFSLQGVTEENRQQRIDAIMPTFIEIVRYWQEKSGVSPLATALIGFSQGAIMSLESIKAAPDLASRVIAFNGRYATLPETATTATTIHLIHGGEDRVIDLAWAVSAEEALQQAGGDVTLDIVDDLGHAIDDRSMQLAIERLRYTVPKHY” here?
A: The value was “not soluble”.

Q: With “MKHKTKILHLKNGYDLWGASFGDPNSPIKILALHGGPGDDADEFIVWADQLKKFARIDAEVFVYEQLGSFHSESPDFSKKENVDNYLNYNYYINEVEEVRQLFDLDNFYLAGHSWGGILAYEYMLRSEYRQHLKAGIVFSMNDNIDDYVKQINKELLDMFGEQEFKYMKRIETSGDFSQKHYHQNLIELYKEHLNRDPNYNPDDGMKMMAEDVYHHFQGNNEFVVTGEMKNWNVSSRLPEFDIPVLETVGEFDTMSVESAKRSARKLPRGRFALTENGGHSHAQDHPKEFFEHLGSFIKDVKAGNV” as the sequence, how does the “soluble on expression in E. coli” value read?
A: The value was “not soluble”.

Q: Which “soluble on expression in E. coli” value does the source give for “MKHLKLIVVILATLALGCLIKSPASVKFEIDRTTIPPSGVFHLIVTLNNTGKVGIVDAKLVVEGEEFFIVQSPKLEHPIKVGDSAKLIWTIKGPKIPGNYHFKAYLDIVDELNRVWRGITYETTIKVSSEELKDSVNLNLTVPSKVQGGKIIIVSGEIVNNLTVPVNIVSAEVSAEDLEVIDKEVPNKIDANSKGKVVFKFKVPPRYEKVRMYVIIEYASLQVSGKLIGEKDILIVWKPWELSPEDVKDIYGNLSEWIFYNDIVDGYWEWMYGSKSKIENRTMFRESVEDLLSVANSDVEAAKAVYNHIVTNYVIEKRRIKTLDPQKIMESSSISPTEAEILMVAYLRSLNIPARIVSVYSETDCTYSPFVEAYLSGKWYVIDFNHMFFGTREEFIATRWYPKIYQEITVFGKSLVALKPSPSGHAHEDLTKEYLSITEKALFNHLSKSLDPSTFSQVRIMLNSMNNEDERIFAMFLFTSAKPEEAKQLLEKVHVNELKKTIDAFYKFYRDIPWEEDFRIYWEKLINLYRLEHHHHHH” here?
A: Its value is “not soluble”.

Q: With “MKHLLPFATVILALGIVGCQKVETTAPEKIKQDTQTKQQVSVTPERPSDAELNAVKVYHHMKYMEATAKLAGGTNKLLHTKKLPTEGSDAVVTPALDHLYSKGVIDLSNGPVTIEYPEVDEGRYYSIHVTDQEHYTIFDKIHPVGKFTFVRKGKNMEVPEGATVIESPGDYPHLFIRVQVKTPEDLVNALSIQEKITLTANSSKTLIVDNPIKHTLATHDVYSQNKELMVSSVNFTHQDYLRVSEYLGVVAPNMGPTGNIGLFGPIDSNEPNSDDYLFRAVGIIGHLGLPLEHAYYGPYFTNCENQLLMGDKTEVFTLPYEPEGVELFWSVTRYSALTRNTLPGKNDLINAYNTKPDANGNISITFSADSPNDGTYWMPVNSGEPYYFVVRYYKPDVNNLPEKPCSLEHHHHHH” as the sequence, how does the “soluble on expression in E. coli” value read?
A: Its value is “not soluble”.

Q: For “MKHWRPFRFPPLIDGAPLAPDAAAEVQASAADGFRQGMDAGYREGFDSGEAAGRDAGYQAGLEQGRAEGAAAARAETLAGLETLGAPLAAAIEQLNKLCRDYQAAQRDEVVDLVAKVARQVIRCELALKPVQILDLVEETLAALPQGAHSQGEVEVLLNPEECQRIRELAPERAAQWKLSADPSLAPGECRLRGAEFEADAGCQQRLERCVDSLREQLAAEEG”, which “soluble on expression in E. coli” value is on record?
A: Its value is “not soluble”.

Q: For “MKIAGLKQLNTALKEAASGGFSRQASRWLEECGQDFLEIVQSELISTQTIDTEKLLSSFEKGAEDNLWIVQSGGLSLEVGTQLDYASFLNDGHWTSKQDVRWVPGRFQGSRFIYDPAASTGMALKRKWIPGTGYWDHALLLYEQLFEKSLESKLRQWLKKLLEHHHHHH”, which “soluble on expression in E. coli” value is on record?
A: The value was “soluble”.

Q: Which “soluble on expression in E. coli” value does the source give for “MKIAIASSGTDLGSEVSRFFGRAPYFMIVEMKKGNIESSEVIENPSASASGGAGIRTAQIIANNGVKAVIASSPGPNAFEVLNELGIKIYRATGTSVEENLKLFTEGNLEEIRSPGSGRGRRRR” here?
A: Its value is “soluble”.

Q: For “MKIALIGATGHVGHYFLNEALQRGHAVTALVRDPSKLAARDGLCVVQADVSDPAQVASAVAGHEVVISAFNGGWGSADLRARHAAGSQAILDGVKRSGVPRLLVLGGAGSLEIAPGQRLVDSPEFPEQWKQGALGAADALDQLRGEQRLDWVFLSPAMLLEPGQRSGKFRLGGDQVLFDAKGESRISLEDLAVAMLDEAEQPRHHRQRFTVAYLEHHHHHH”, which “soluble on expression in E. coli” value is on record?
A: The value was “soluble”.

Q: For “MKIARLNLWHVPLTSHTAYYMADGKTCDTVETVVIAVQTDTGITGWGEVCPIPHYLPAYARGVAPALTELAPVILGADPVGVGALMERVDAVLHGHPYAKSALDIALWDITGQVAGLPLHALLGGWRAADMPLYHSITCIAPDDMARIAREAQAQGITQFQVKLGASGDWQTDVERLAKVREAVGPGPLVYGDWNCGATSLEAIRVGRAVAQLDIMLEQPCATLEDCARVQRATGLPMKIDELAHDTASLLTAHRLGIMDAVALKLSKFGGLSTTRRARDLCLHLGARMCIEDTWGSDITTAALLHLGAASEPGRVLNVCDLSGYVAPRLAPDAPVRANGRIAPPEGAGLGITVDRGALGVPDLILD”, which “soluble on expression in E. coli” value is on record?
A: The value was “soluble”.

Q: With “MKIGVVGLGLIGASLAGDLRRRGHYLIGVSRQQSTCEKAVERQLVDEAGQDLSLLQTAKIIFLCTPIQLILPTLEKLIPHLSPTAIVTDVASVKTAIAEPASQLWSGFIGGHPMAGTAAQGIDGAEENLFVNAPYVLTPTEYTDPEQLACLRSVLEPLGVKIYLCTPADHDQAVAWISHLPVMVSAALIQACAGEKDGDILKLAQNLASSGFRDTSRVGGGNPELGTMMATYNQRALLKSLQDYRQHLDQLITLISNQQWPELHRLLQQTNGDRDKYVE” as the sequence, how does the “soluble on expression in E. coli” value read?
A: Its value is “soluble”.

Q: With “MKIISKEFTVKTRSRFDSIDITEQVSEAIKGINNGIAHVIVKHTTCAIIINEAESGLMKDFLNWAKKLVPPDGEFEHNIIDNNGHAHVISAIIGNSRVVPIIEGKLDLGTWQRIILLEFDGPRTRTVLVKSMGE” as the sequence, how does the “soluble on expression in E. coli” value read?
A: Its value is “soluble”.

Q: Which “soluble on expression in E. coli” value does the source give for “MKIKHLPFDQNRNGWSADLVDKPNYPQQRGKTTADWLVIGAGYAGIAFAQRLAEQRPDKHIILLDAGEIGDNASGRNSGFVIDLPHNIGSSTAELEKAAAYRRLLQSGVAHLKEKVDRHAIACDWSVAGKYHCAVSSTFNGLIDTYVRELNGLGEPYQVVEKDELARRLGTSFYQRAVYTPNCILLNPAALVIGLVASLPKNVTVYAHSPALNIETGSRIRVETPYGEIQADKLMMAINGAARGLPLFNGRVFAVTTFATLTEPLNAEQTARMGDMPDWGLTPVNALASATLRYTRDHRFLIREHVKFAPELVNSAVETGRHARRHAAIFARMFPQLSDVKMAHTWSGLISVTRNGAPIWGQLSDNVFASAGCNGAGLSKQTAAGHILADLALGEDNPLISDMQSLGQANYLPPRPFLDVGVNGYLTSERWKARSERLEHHHHHH” here?
A: Its value is “not soluble”.

Q: With “MKIKYFFIPLFSSAILFSACSSIQSDLRNLIKETTGKDFDVSKLIKTSEGRKNLINSLKKSYESKPDETASLLLIAWKQSAEMGEIGFDDIKEGGIYTRDNDPFKLEQKVEYFNMEYKILVMF” as the sequence, how does the “soluble on expression in E. coli” value read?
A: The value was “soluble”.

Q: With “MKILFVAAEGAPFSKTGGLGDVIGALPKSLVKAGHEVAVILPYYDMVEAKFGNQIEDVLHFEVSVGWRRQYCGIKKTVLNGVTFYFIDNQYYFFRGHVYGDFDDGERFAFFQLAAIEAMERIDFIPDLLHVHDYHTAMIPFLLKEKYRWIQAYEDIETVLTIHNLEFQGQFSEGMLGDLFGVGFERYADGTLRWNNCLNWMKAGILYANRVSTVSPSYAHEIMTSQFGCNLDQILKMESGKVSGIVNGIDADLYNPQTDALLDYHFNQEDLSGKAKNKAKLQERVGLPVRADVPLVGIVSRLTRQKGFDVVVESLHHILQEDVQIVLLGTGDPAFEGAFSWFAQIYPDKLSTNITFDVKLAQEIYAACDLFLMPSRFEPCGLSQMMAMRYGTLPLVHEVGGLRDTVRAFNPIEGSGTGFSFDNLSPYWLNWTFQTALDLYRNHPDIWRNLQKQAMESDFSWDTACKSYLDLYHSLVN” as the sequence, how does the “soluble on expression in E. coli” value read?
A: The value was “not soluble”.

Q: For “MKIMEINVEHILDCLDQYGKGELTEEQLVKALTYDEKMFLIMHQGLLGENSDSEDDFDVQDWLEEEESFFMVVEVNENLCRQAESVLEEIGVEMPDAIEGFLNQLVEKKQFPVVINS”, which “soluble on expression in E. coli” value is on record?
A: Its value is “not soluble”.

Q: For “MKINNKLVGERIQNIRLSHGDSMEKFGEKFNTSKGTVNNWEKGRNLPNKENLLKIASIGKMSVEELLYGDYNTYLHLKIMDLAPECIKNYDEYNSLHDDITNKALQIAQNTISKIDYQISDETIKKFIDLAIEQSRDLQGNLLKNNLSNFDYSLFGGTRNREYFYFGYRLTYKEKYLYTALLAILNESTKTIYIDDINTARFFNFFGNDIPNSSLKKIDYIAPSEIVSFSTYVRQRSKVIPKILEHILKSSFLLENIDVSGYTVNILEDQLTKHRTIKISKN”, which “soluble on expression in E. coli” value is on record?
A: Its value is “not soluble”.

Q: For “MKIRESTGKTSSLREVPGQEPRRVADSSGSSFKRHLKEFDHRNHEERIRALVSQIEEQGRKLSQKIDVAELKVYKRLISDFLDEVLHHSHIFSKDSHLDRRGRYKVYATVKKINEELDELTKEVLNAEKDNIRILQRIEDIRGLVLDLML”, which “soluble on expression in E. coli” value is on record?
A: The value was “soluble”.
